Columns and labels:
[1] = human, in vivo; cited from earlier work
human plasmin [2] = molecular target: T1, human plasmin (human, UniProt P00747 97-810); test: amidolytic inhibition of 3 nM plasmin, tight-binding equation
T1 construct: Plasmin is a two-chain enzyme derived from plasminogen; also called Pm
Description: All reactions were carried out in TBS, pH 7.5 (50 mM Tris-HCL, pH 7.5, containing 100 mM NaCl), containing 0.1 mg bovine serum albumin/ml (TBS/BSA) and 2 mM Ca2+(TBS/BSA/Ca2+, pH 7.5). […] The inhibition constant, K* was determined using the nonlinear regression data analysis program Grafit.

human plasmin [3] = molecular target: T1, human plasmin; test: residual activity of 3 nM plasmin (percent fractional activity by the legend; the axis is labelled % Pm Inhibition), substrate S-2251 [A]
human plasmin [4] = molecular target: T1, human plasmin; test: cell-based or functional assay

T1 sequence (P00747 97-810 limits assumed): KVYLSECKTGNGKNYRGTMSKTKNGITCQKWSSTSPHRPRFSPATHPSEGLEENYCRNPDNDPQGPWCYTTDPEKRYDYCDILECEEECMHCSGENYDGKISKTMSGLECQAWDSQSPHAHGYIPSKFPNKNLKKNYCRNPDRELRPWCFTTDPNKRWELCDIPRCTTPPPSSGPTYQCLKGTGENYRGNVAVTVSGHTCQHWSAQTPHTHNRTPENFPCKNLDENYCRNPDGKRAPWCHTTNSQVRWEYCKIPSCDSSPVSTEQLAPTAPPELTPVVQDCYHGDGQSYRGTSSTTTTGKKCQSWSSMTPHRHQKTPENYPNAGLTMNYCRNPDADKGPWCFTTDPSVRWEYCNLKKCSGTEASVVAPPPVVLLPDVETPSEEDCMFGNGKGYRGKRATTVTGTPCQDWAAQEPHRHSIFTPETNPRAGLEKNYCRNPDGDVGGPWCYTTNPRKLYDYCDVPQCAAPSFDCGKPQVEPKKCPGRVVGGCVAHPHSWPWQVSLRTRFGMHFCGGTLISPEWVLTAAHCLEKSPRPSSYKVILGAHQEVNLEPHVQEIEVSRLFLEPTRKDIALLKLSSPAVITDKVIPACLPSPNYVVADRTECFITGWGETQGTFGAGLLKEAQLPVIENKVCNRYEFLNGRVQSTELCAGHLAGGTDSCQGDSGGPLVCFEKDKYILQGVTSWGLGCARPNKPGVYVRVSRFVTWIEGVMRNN

Ecallantide
half-life [1]: ~2 h

B1: KD1-Y11T/L17R-KT (E. Coli) (designed binder)
chain: MGSSHHHHHHSSGHIDDDDKNAEICLLPLDTGPCRARLLRYYYDRYTQSCRQFLYGGCEGNANNFYTWEACDDACWRIEK
notes: also called KD1DM; E. coli expressed KD1-Y11T/L17R-KT
Ki (human plasmin [2]): 0.59 nM
IC50 (read off the curve) (human plasmin [3]): 2 to 3 nM

B2: KD1-WT (other)
chain: DAAQEPTGNNAEICLLPLDYGPCRALLLRYYYDRYTQSCRQFLYGGCEGNANNFYTWEACDDACWRIEKVPKV
notes: also called Wild-type KD1; E. coli expressed KD1-WT (IIa cleavage site); not shown: N-terminal residues left from the IIa (thrombin) cleavage site
TEG G, 1 µM inhibitor, whole blood + 1.5 µM plasmin (human plasmin [4]): 79 dyn/cm^2
TEG G, 2 µM inhibitor, whole blood + 1.5 µM plasmin (human plasmin [4]): 108 dyn/cm^2
TEG G, 3 µM inhibitor, whole blood + 1.5 µM plasmin (human plasmin [4]): 180 dyn/cm^2
TEG G, 5 µM inhibitor, whole blood + 1.5 µM plasmin (human plasmin [4]): 818 dyn/cm^2
TEG G, 7.5 µM inhibitor, whole blood + 1.5 µM plasmin (human plasmin [4]): 820 dyn/cm^2
TEG LY30, 1 µM inhibitor, whole blood + 1.5 µM plasmin (human plasmin [4]): 100%
TEG LY30, 2 µM inhibitor, whole blood + 1.5 µM plasmin (human plasmin [4]): 100%
TEG LY30, 3 µM inhibitor, whole blood + 1.5 µM plasmin (human plasmin [4]): 100%
TEG LY30, 5 µM inhibitor, whole blood + 1.5 µM plasmin (human plasmin [4]): 6.5%
TEG LY30, 7.5 µM inhibitor, whole blood + 1.5 µM plasmin (human plasmin [4]): 0%
TEG LY60, 1 µM inhibitor, whole blood + 1.5 µM plasmin (human plasmin [4]): 100%
TEG LY60, 2 µM inhibitor, whole blood + 1.5 µM plasmin (human plasmin [4]): 100%
TEG LY60, 3 µM inhibitor, whole blood + 1.5 µM plasmin (human plasmin [4]): 100%
TEG LY60, 5 µM inhibitor, whole blood + 1.5 µM plasmin (human plasmin [4]): 22.4%
TEG LY60, 7.5 µM inhibitor, whole blood + 1.5 µM plasmin (human plasmin [4]): 0%
TEG MA, 1 µM inhibitor, whole blood + 1.5 µM plasmin (human plasmin [4]): 1.45 mm
TEG MA, 2 µM inhibitor, whole blood + 1.5 µM plasmin (human plasmin [4]): 2.23 mm
TEG MA, 3 µM inhibitor, whole blood + 1.5 µM plasmin (human plasmin [4]): 3.49 mm
TEG MA, 5 µM inhibitor, whole blood + 1.5 µM plasmin (human plasmin [4]): 13.9 mm
TEG MA, 7.5 µM inhibitor, whole blood + 1.5 µM plasmin (human plasmin [4]): 11.7 mm
Ki (human plasmin [2]): 6 nM
IC50 (read off the curve) (human plasmin [3]): ~9 nM
